{"source": "patent US20220259593A1", "about": "“CONTROL OF MAMMALIAN GENE DOSAGE USING CRISPR” (The Regents of the University of California, priority 2019, published 2022)"}
{"test_system": "K562 CRISPRi cells", "experiment": "Constant region variant library pooled growth screen, K562", "format": "cell-based, human", "conditions": "sgRNA constant region variants; activity relative to the original, un-modified constant region cr995", "outline": "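Growth screens in K562 CRISPRi cells were harvested 4-8 days post-selection at >2000× library coverage. Each variant's phenotype was referenced to the unmodified constant region with the same targeting sequence.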"}
{"molecule": "cr768 (nucleic acid, listed as DNA, chemistry not fully specified) guide: GTTTAAGAGCTAAGCTGGAAACAGCATAGCAAGTTTAAATAAGGCTAGTCCGTTATCAACTTGAAAAAGTGGCACCGAGCCGGTGCT", "Mean relative activity": 0.8788}
{"molecule": "cr676 (nucleic acid, listed as DNA, chemistry not fully specified) guide: GTTTAAGAGCTAAGCTGGAAACAGCATAGCAAGTTTAAATAAGGCTAGTCCGTTATCAACTTGGAAAAGTTGCACCGAGTCGGTGCT", "Mean relative activity": 0.8506}
{"molecule": "cr899 (nucleic acid, listed as DNA, chemistry not fully specified) guide: GTTTAAGAGCTAAGCTGGAAACAGCATAGCAAGTTTAAATAAGACTAGTTCGTTATCAGCTTGAAAAAGCGGTACCGAGTCGGTACT", "Mean relative activity": 0.8583}
{"molecule": "cr319 (nucleic acid, listed as DNA, chemistry not fully specified) guide: GTTTAAGAGCTAAGCTGGAAACAGCATAGCAAGTTTAAATAGGGCTAGTCCGTTATCAACTTGAGAAAGTGGCACCGAGTCGGTGCT", "Mean relative activity": 0.8419}
{"molecule": "cr878 (nucleic acid, listed as DNA, chemistry not fully specified) guide: GTTTAAGAGCTAAGCTGGAAACAGCATAGCAAGTTTAAATAAGGTTAATCCGTTATCAATTTGAAAAAATGGCATCGAGTCGATGCT", "Mean relative activity": 0.847}
{"molecule": "cr260 (nucleic acid, listed as DNA, chemistry not fully specified) guide: GTTTAAGAGCTAAGCTGGAAACAGCATAGCAAGTTTAAATAAGGCTAGTCCGATATCAACTTGAAAAAGTGGCACCGAGTCGGTGCT", "Mean relative activity": 0.874}
{"molecule": "cr184 (nucleic acid, listed as DNA, chemistry not fully specified) guide: GTTTAAGAGCTAAGCTGGAAACAGCATAGCAAGTTTAAATAAGGCTAGTCCGGTATCAACTTGGAAAAGTGGCACCGAGTCGGTGCT", "Mean relative activity": 0.8653}
{"molecule": "cr370 (nucleic acid, listed as DNA, chemistry not fully specified) guide: GTTTAAGAGCTAAGCTGGAAACAGCATAGCAAGTTTAAATAAGGCTAGTCCGTTATCAACTTGAGAAAGTGGCACGGAGTCCGTGCT", "Mean relative activity": 0.8417}
{"molecule": "cr914 (nucleic acid, listed as DNA, chemistry not fully specified) guide: GTTTAAGAGCTAAGCTGGAAACAGCATAGCAAGTTTAAATAAGACTAGTTCGTTATCAACTTGAAAAAGTGGGACCGAGTCGGTCCT", "Mean relative activity": 0.8494}
{"molecule": "cr643 (nucleic acid, listed as DNA, chemistry not fully specified) guide: GTTTAAGAGCTAAGCTGGAAACAGCATAGCAAGTTTAAATAAGACTAGTTCGTTATCAGCTTGAAAAAGCGGCATCGAGTCGATGCT", "Mean relative activity": 0.865}
{"molecule": "cr785 (nucleic acid, listed as DNA, chemistry not fully specified) guide: GTTTAAGAGCTAAGCTGGAAACAGCATAGCAAGTTTAAATAAGGCGAGTCCGTTATCAACTTGAAAAAGTGGCACCGAGTCGGTGCG", "Mean relative activity": 0.8378}
{"molecule": "cr829 (nucleic acid, listed as DNA, chemistry not fully specified) guide: GTTTAAGAGCTAAGCTGGAAACAGCATACCAAGTTTAAATAAGGCTAGTCCGTTATCAACTTGAAAAAGTGGCACCGAGTCGGTGCT", "Mean relative activity": 0.8571}
{"molecule": "cr216 (nucleic acid, listed as DNA, chemistry not fully specified) guide: GTTTAAGAGCTAAGCTGGAAACAGCATAGCAAGTTTAAATAAGACTAGTTCGTTATCAACTTGAAAAAGTGGCACCGAGTCGGTGCT", "Mean relative activity": 0.8652}
{"molecule": "cr105 (nucleic acid, listed as DNA, chemistry not fully specified) guide: GTTTAAGAGCTAAGCTGGAAACAGCATAGCAAGTTTAAATAAGGCCAGTCCGTTATCAACTTGACAAAGTGGCACCGAGTCGGTGCT", "Mean relative activity": 0.8672}
{"molecule": "cr688 (nucleic acid, listed as DNA, chemistry not fully specified) guide: GTTTAAGAGCTAAGCTGGAAACAGCATAGCAAGTTTAAATAAGGCTAGTCCGTTATCAACTTGATAAAGTGGCACCGAGCCGGTGCT", "Mean relative activity": 0.848}
{"molecule": "cr788 (nucleic acid, listed as DNA, chemistry not fully specified) guide: GTTTAAGAGCTAAGCTGGAAACAGCATATCAAGTTTAAATAAGGCTAGTCCGTTATCAACTTGAAAAAGTGGCACCGAGTCGGTGCT", "Mean relative activity": 0.8617}
{"molecule": "cr865 (nucleic acid, listed as DNA, chemistry not fully specified) guide: GTTTAAGAGCTAAGCTGGAAACAGCATAGCAAGTTTAAATAAGGCTAGTCCGTTATCATCTTGAAAAAGTGGCACCGAGTCGGTGCT", "Mean relative activity": 0.8637}
{"molecule": "cr153 (nucleic acid, listed as DNA, chemistry not fully specified) guide: GTTTAAGAGCTAAGCTGGAAACAGCATAGCAAGTTTAAATAAGGCTAGTCCGTTATCAAAATGAAAATTTGGCACCGAGTCGGTGCT", "Mean relative activity": 0.8735}
{"molecule": "cr960 (nucleic acid, listed as DNA, chemistry not fully specified) guide: GTTTAAGAGCTAAGCTGGAAACAGCATAGCAAGTTTAAATAAGGCTAGTCCGTTATCATATTGAAAAATAGGCACCGAGTCGGTGCT", "Mean relative activity": 0.8446}
{"molecule": "cr236 (nucleic acid, listed as DNA, chemistry not fully specified) guide: GTTTAAGAGCTAAGCTGGAAACAACATAGCAAGTTTAAATAAGGCTAGTCCGTTATCAACTTGAAAAAGTGGCACCGAGTCGGTGCT", "Mean relative activity": 0.8745}
{"molecule": "cr717 (nucleic acid, listed as DNA, chemistry not fully specified) guide: GTTTAAGAGCTAAGCTGGAAACAGCATAGCAAGTTTAAATAAGGTTAATCCGTTATCAGCTTGAAAAAGCGGCACCGAGTCGGTGCT", "Mean relative activity": 1.056}
{"molecule": "cr891 (nucleic acid, listed as DNA, chemistry not fully specified) guide: GTTTAAGAGCTAAGCTGGAAACAGCATAGCAAGTTTAAATAAGACTAGTTCGTTATCAACTTGAAAAAGTGGTACCGAGTCGGTACT", "Mean relative activity": 0.8641}
{"molecule": "cr022 (nucleic acid, listed as DNA, chemistry not fully specified) guide: GTTTAAGTGCTAAGCTGGAAACAGCATAGCAAGTTTAAATAAGGCTAGTCCGTTATCAACTTGAAAAAGTGGCACCGAGTCGGTGCT", "Mean relative activity": 1.058}
{"molecule": "cr943 (nucleic acid, listed as DNA, chemistry not fully specified) guide: GTTTAAGAGCTAAGCTGGAAACAGCATAGCAAGTTTAAATAAGGCTAGTCCGTTATCAACTTGAAAAAGTGACAACGAGTCGTTGTT", "Mean relative activity": 0.8464}
{"molecule": "cr495 (nucleic acid, listed as DNA, chemistry not fully specified) guide: GTTTAAGAGCTAAGCTGGAAACAGCATAGCAAGTTTAAATAAGGCTAGTCCGTTATCAACTTGAAAAAGTGGCACCGAGACGGTGCT", "Mean relative activity": 0.8462}
{"molecule": "cr692 (nucleic acid, listed as DNA, chemistry not fully specified) guide: GTTTAAGAGCTAAGCTAGAAACAGCATAGCAAGTTTAAATAAGGCTAGTCCGTTATCAACTTGAAAAAGTGGCACCGAGTCGGTGCT", "Mean relative activity": 0.8665}
{"molecule": "cr647 (nucleic acid, listed as DNA, chemistry not fully specified) guide: GTTTAAGAGCTAAGCTGGAAACAGGATAGCAAGTTTAAATAAGGCTAGTCCGTTATCAACTTGAAAAAGTGGCACCGAGTCGGTGCT", "Mean relative activity": 0.8408}
{"molecule": "cr169 (nucleic acid, listed as DNA, chemistry not fully specified) guide: GTTTAAGAGCTAAGCTGGAAACAGCATAGCAAGTTTAAATAAGGCTAGTCCGTTATCAACTTGAGAAAGTGGCACCGAGCCGGTGCT", "Mean relative activity": 0.8454}
{"molecule": "cr991 (nucleic acid, listed as DNA, chemistry not fully specified) guide: GTTTAAGAGCTAAGCTGGAAACAGCATAGCAAGTTTAAATAAGGCTAGTCCGATATCAACTTGACAAAGTGGCACCGAGTCGGTGCT", "Mean relative activity": 0.8694}
{"molecule": "cr521 (nucleic acid, listed as DNA, chemistry not fully specified) guide: GTTTAAGAGCTAAGCTGGAAACAGCATAGCAAGTTTAAATAAGGCTGGTCCGTTATCAACTTGAAAAAGTGGCACCGTGTCGGTGCT", "Mean relative activity": 0.8638}
{"molecule": "cr590 (nucleic acid, listed as DNA, chemistry not fully specified) guide: GTTTAAGAGCTAAGCTGGAAACAGCATAGCAAGTTTAAATAAGGCTAGTCCGTTATCAACTTGACAAAGTGGCACCGAGCCGGTGCT", "Mean relative activity": 0.8361}
